Experimental data taken from article PMC3050729, “Novel computational analysis of protein binding array data identifies direct targets of Nkx2.2 in the pancreas”.

T1: Nkx2.2 (in vitro translated) (UniProt P42586 1-273)
T1 sequence: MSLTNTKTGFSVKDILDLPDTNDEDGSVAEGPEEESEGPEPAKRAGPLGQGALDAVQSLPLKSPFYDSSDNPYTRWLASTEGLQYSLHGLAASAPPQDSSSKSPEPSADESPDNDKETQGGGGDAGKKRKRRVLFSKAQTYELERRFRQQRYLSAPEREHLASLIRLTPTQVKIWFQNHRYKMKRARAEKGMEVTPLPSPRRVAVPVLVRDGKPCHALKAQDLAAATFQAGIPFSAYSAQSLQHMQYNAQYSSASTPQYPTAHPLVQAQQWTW


Target: T1, Nkx2.2 (in vitro translated)
Assay: EMSA; EMSA as in ref 20; buffer, salt, pH and temperature not given
Settings: protein: ivt, label: 32P-dCTP Klenow fill-in, filled in with Klenow

| Binder | binding result (5' overhangs) | binding result (5' overhang 4 nt) |
| --- | --- | --- |
| Ins2 -144 (dsDNA) DNA 1: TGCTTTCTGCAGACCTAGCACCAGGCAAGTGTTTGGAAACTGCAGCT DNA 2: CTGAAGCTGCAGTTTCCAAACACTTGCCTGGTGCTAGGTCTGCAGAA | no binding |  |
| Nkx6.2 +1669 (+669 in probe list) (dsDNA) DNA 1: CCGAATCCCGCGCGGGCCACTTACCGGAGCCGGCCAGTCGCGGGTCCCTC DNA 2: CTGGAGGGACCCGCGACTGGCCGGCTCCGGTAAGTGGCCCGCGCGGGATT | no binding |  |
| Gcg -1080 (dsDNA) DNA 1: AGACCATTGAAACAACTGGAGGAGTACTCTGACTGAACTTAATTCTTCAT DNA 2: AGAATGAAGAATTAAGTTCAGTCAGAGTACTCCTCCAGTTGTTTCAATGG | no binding |  |
| Ins2 -477 (Ins -471 in probe list) (dsDNA) DNA 1: AAGCAGAACTCAGGCAGCAAGGTACTTAATGGTCCCTCCTTCTCCATC DNA 2: AGAGATGGAGAAGGAGGGACCATTAAGTACCTTGCTGCCTGAGTTCT | binds |  |
| Nkx2.2 AAGT consensus (dsDNA) DNA 1: TCGACGCGATTTTTCAAGTGGTTTTCAGTAGC DNA 2: AGCTGCTACTGAAAACCACTTGAAAAATCGCG |  | binds |
